Measured values published in US20240132485A1, “HETEROCYCLIC CULLIN RING UBIQUITIN LIGASE COMPOUNDS AND USES THEREOF” (CEMM - FORSCHUNGSZENTRUM FÜR MOLEKULARE MEDIZIN GMBH, priority 2020, published 2024).

How the values were obtained:
[1] = biological target: Nanoluc_DDB1 (N-terminal Nanoluc luciferase, G4S linker, DDB1 (FL)) (UniProt Q16531); experiment: NanoBRET in HEK293T cells, 10-point titration of compound Example 3-44; class A = EC50<=0.25 µM
[2] = biological target: Nanoluc_DDB1 (N-terminal Nanoluc luciferase, G4S linker, DDB1 (FL)) (UniProt Q16531); experiment: NanoBRET in HEK293T cells, 10 µM compound Example 3-4; class A = greater than 4-fold increase
[3] = biological target: Nanoluc_DDB1 (N-terminal Nanoluc luciferase, G4S linker, DDB1 (FL)) (UniProt Q16531); experiment: NanoBRET in HEK293T cells, 10 µM compound Example 3-26; class C = 2-3 fold increase
[4] = biological target: Nanoluc_DDB1 (N-terminal Nanoluc luciferase, G4S linker, DDB1 (FL)) (UniProt Q16531); experiment: NanoBRET in HEK293T cells, 10 µM compound Example 3-47; class A = greater than 4-fold increase
[5] = biological target: Nanoluc_DDB1 (N-terminal Nanoluc luciferase, G4S linker, DDB1 (FL)) (UniProt Q16531); experiment: NanoBRET in HEK293T cells, 10 µM compound Example 3-57; class B = 3-4 fold increase
[6] = biological target: Nanoluc_DDB1 (N-terminal Nanoluc luciferase, G4S linker, DDB1 (FL)) (UniProt Q16531); experiment: NanoBRET in HEK293T cells, 10 µM compound Example 3-60; class C = 2-3 fold increase
[7] = biological target: Nanoluc_DDB1 (N-terminal Nanoluc luciferase, G4S linker, DDB1 (FL)) (UniProt Q16531); experiment: NanoBRET in HEK293T cells, 10 µM compound Example 3-12; class D = 1-2 fold increase
[8] = biological target: Nanoluc_DDB1 (N-terminal Nanoluc luciferase, G4S linker, DDB1 (FL)) (UniProt Q16531); experiment: NanoBRET in HEK293T cells, 10-point titration of compound Example 3-59; class E = >10 µM
[9] = biological target: Nanoluc_DDB1 (N-terminal Nanoluc luciferase, G4S linker, DDB1 (FL)) (UniProt Q16531); experiment: NanoBRET in HEK293T cells, 10 µM compound Example 3-33; class A = greater than 4-fold increase
[10] = biological target: Nanoluc_DDB1 (N-terminal Nanoluc luciferase, G4S linker, DDB1 (FL)) (UniProt Q16531); experiment: NanoBRET in HEK293T cells, 10 µM compound Example 3-8; class A = greater than 4-fold increase
[11] = biological target: Nanoluc_DDB1 (N-terminal Nanoluc luciferase, G4S linker, DDB1 (FL)) (UniProt Q16531); experiment: NanoBRET in HEK293T cells, 10 µM compound Example 3-24; class B = 3-4 fold increase
[12] = biological target: Nanoluc_DDB1 (N-terminal Nanoluc luciferase, G4S linker, DDB1 (FL)) (UniProt Q16531); experiment: NanoBRET in HEK293T cells, 10 µM compound Example 3-51; class B = 3-4 fold increase
[13] = biological target: Nanoluc_DDB1 (N-terminal Nanoluc luciferase, G4S linker, DDB1 (FL)) (UniProt Q16531); experiment: NanoBRET in HEK293T cells, 10-point titration of compound Example 3-35; class A = EC50<=0.25 µM
[14] = biological target: Nanoluc_DDB1 (N-terminal Nanoluc luciferase, G4S linker, DDB1 (FL)) (UniProt Q16531); experiment: NanoBRET in HEK293T cells, 10 µM compound Example 3-50; class A = greater than 4-fold increase
[15] = biological target: Nanoluc_DDB1 (N-terminal Nanoluc luciferase, G4S linker, DDB1 (FL)) (UniProt Q16531); experiment: NanoBRET in HEK293T cells, 10 µM compound Example 3-55; class B = 3-4 fold increase
[16] = biological target: Nanoluc_DDB1 (N-terminal Nanoluc luciferase, G4S linker, DDB1 (FL)) (UniProt Q16531); experiment: NanoBRET in HEK293T cells, 10 µM compound Example 3-31; class C = 2-3 fold increase
[17] = biological target: Nanoluc_DDB1 (N-terminal Nanoluc luciferase, G4S linker, DDB1 (FL)) (UniProt Q16531); experiment: NanoBRET in HEK293T cells, 10 µM compound Example 3-58; class C = 2-3 fold increase
[18] = biological target: Nanoluc_DDB1 (N-terminal Nanoluc luciferase, G4S linker, DDB1 (FL)) (UniProt Q16531); experiment: NanoBRET in HEK293T cells, 10 µM compound Example 3-22; class B = 3-4 fold increase
[19] = biological target: Nanoluc_DDB1 (N-terminal Nanoluc luciferase, G4S linker, DDB1 (FL)) (UniProt Q16531); experiment: NanoBRET in HEK293T cells, 10 µM compound Example 3-16; class C = 2-3 fold increase
[20] = biological target: Nanoluc_DDB1 (N-terminal Nanoluc luciferase, G4S linker, DDB1 (FL)) (UniProt Q16531); experiment: NanoBRET in HEK293T cells, 10-point titration of compound Example 3-66; class A = EC50<=0.25 µM
[21] = biological target: Nanoluc_DDB1 (N-terminal Nanoluc luciferase, G4S linker, DDB1 (FL)) (UniProt Q16531); experiment: NanoBRET in HEK293T cells, 10-point titration of compound Example 3-62; class A = EC50<=0.25 µM
[22] = biological target: Nanoluc_DDB1 (N-terminal Nanoluc luciferase, G4S linker, DDB1 (FL)) (UniProt Q16531); experiment: NanoBRET in HEK293T cells, 10 µM compound Example 3-35; class A = greater than 4-fold increase
[23] = biological target: Nanoluc_DDB1 (N-terminal Nanoluc luciferase, G4S linker, DDB1 (FL)) (UniProt Q16531); experiment: NanoBRET in HEK293T cells, 10-point titration of compound Example 3-14; class A = EC50<=0.25 µM
[24] = biological target: Nanoluc_DDB1 (N-terminal Nanoluc luciferase, G4S linker, DDB1 (FL)) (UniProt Q16531); experiment: NanoBRET in HEK293T cells, 10 µM compound Example 3-23; class B = 3-4 fold increase
[25] = biological target: Nanoluc_DDB1 (N-terminal Nanoluc luciferase, G4S linker, DDB1 (FL)) (UniProt Q16531); experiment: NanoBRET in HEK293T cells, 10 µM compound Example 3-63; class B = 3-4 fold increase

Chain of Nanoluc_DDB1 (N-terminal Nanoluc luciferase, G4S linker, DDB1 (FL)) (Q16531 other isoform, or with tags, fused parts or gaps): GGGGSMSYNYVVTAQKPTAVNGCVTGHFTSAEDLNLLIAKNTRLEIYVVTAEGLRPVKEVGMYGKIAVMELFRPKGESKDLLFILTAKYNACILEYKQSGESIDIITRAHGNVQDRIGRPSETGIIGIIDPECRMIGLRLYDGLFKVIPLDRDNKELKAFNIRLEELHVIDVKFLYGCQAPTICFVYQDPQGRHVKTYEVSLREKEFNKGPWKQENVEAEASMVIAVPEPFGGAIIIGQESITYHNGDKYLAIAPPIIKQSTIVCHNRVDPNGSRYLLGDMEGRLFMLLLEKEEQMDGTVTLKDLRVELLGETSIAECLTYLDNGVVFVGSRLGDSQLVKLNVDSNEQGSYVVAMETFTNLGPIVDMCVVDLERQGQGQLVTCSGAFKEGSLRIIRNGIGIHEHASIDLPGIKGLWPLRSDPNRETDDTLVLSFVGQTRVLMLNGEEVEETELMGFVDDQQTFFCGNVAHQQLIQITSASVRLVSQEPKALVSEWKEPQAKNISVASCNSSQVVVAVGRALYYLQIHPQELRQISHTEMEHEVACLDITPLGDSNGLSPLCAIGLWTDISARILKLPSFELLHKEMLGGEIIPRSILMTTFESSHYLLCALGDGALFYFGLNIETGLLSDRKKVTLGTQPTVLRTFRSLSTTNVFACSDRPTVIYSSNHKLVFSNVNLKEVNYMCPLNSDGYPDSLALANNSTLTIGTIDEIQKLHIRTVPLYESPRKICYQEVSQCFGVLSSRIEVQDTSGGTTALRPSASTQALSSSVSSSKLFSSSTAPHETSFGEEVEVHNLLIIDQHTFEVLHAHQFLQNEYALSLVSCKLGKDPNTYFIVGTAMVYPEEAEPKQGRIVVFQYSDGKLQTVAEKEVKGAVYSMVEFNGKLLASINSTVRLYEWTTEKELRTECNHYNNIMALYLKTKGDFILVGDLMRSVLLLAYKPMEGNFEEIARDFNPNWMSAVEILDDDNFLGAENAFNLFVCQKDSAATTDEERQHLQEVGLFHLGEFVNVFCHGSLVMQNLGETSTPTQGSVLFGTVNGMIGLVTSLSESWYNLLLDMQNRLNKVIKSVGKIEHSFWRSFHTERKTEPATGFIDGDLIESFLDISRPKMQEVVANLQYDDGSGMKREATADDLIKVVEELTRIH

For “HaloTag_CDK12 (N-terminal HaloTag, G4S linker, CDK12 (713-1052)) (from UniProt Q9NYV4 713-1052) (enzyme)”, the EC50 [1] was < 250 nM, the NanoBRET fold increase [2] was > 4 fold and the NanoBRET fold increase [3] was 2 to 3 fold. For the same substance, the NanoBRET fold increase [4] was > 4 fold, the NanoBRET fold increase [5] was 3 to 4 fold and the NanoBRET fold increase [6] was 2 to 3 fold. For the same substance, the NanoBRET fold increase [7] was 1 to 2 fold, the EC50 [8] was > 10000 nM and the NanoBRET fold increase [9] was > 4 fold. The NanoBRET fold increase [10] was > 4 fold, the NanoBRET fold increase [11] was 3 to 4 fold and the NanoBRET fold increase [12] was 3 to 4 fold. For the same substance, the EC50 [13] was < 250 nM, the NanoBRET fold increase [14] was > 4 fold and the NanoBRET fold increase [15] was 3 to 4 fold. For the same substance, the NanoBRET fold increase [16] was 2 to 3 fold, the NanoBRET fold increase [17] was 2 to 3 fold and the NanoBRET fold increase [18] was 3 to 4 fold. For the same substance, the NanoBRET fold increase [19] was 2 to 3 fold, the EC50 [20] was < 250 nM and the EC50 [21] was < 250 nM. For the same substance, the NanoBRET fold increase [22] was > 4 fold, the EC50 [23] was < 250 nM and the NanoBRET fold increase [24] was 3 to 4 fold. For the same substance, the NanoBRET fold increase [25] was 3 to 4 fold.
